Experiment [1] concerns the target T1, His-tagged recombinant human CD163 (R&D Systems, No. 1607-CD-050) (human, UniProt Q86VB7 46-1050, limits assumed).
T1 construct: Bought protein; also called recombinant CD163 protein; huCD163; not shown: His tag
As to the kind of experiment: ELISA, His-tagged recombinant human CD163 coated at 5 µg/mL. On the procedure: (§1) CD163 variant antibody binding to His-tagged recombinant human CD163 (R&D Systems, No. 1607-CD-050) protein was determined using ELISA. Recombinant protein was diluted in PBS to 5 μg/mL and added to 384-well high-binding ELISA plates (Greiner Bio-One, No. 781061) at 25 μL per well and incubated at 4° C. overnight. The plates were washed three times with PBS, using a BioTek ELx405 Select microplate washer (wash program ELISA_384_PBS_3×_wash) and then blocked with 90 μL/well of blocking buffer (2% nonfat, dry milk/PBS+0.05% Tween 20) for 1 hour at RT.
(§2) After blocking, 25 μL per well of primary antibodies were added to the plates and incubated for 1 hour at RT. […] After primary antibody binding, plates were washed three times with PBS using the EL405× (wash program ELISA_384_PBS 3×_wash). The secondary antibody was a goat anti-human IgG F(ab′)₂ HRP (Jackson Immunoresearch, No. 109-035-097). Secondary antibody was diluted to 1:2500 in 2% nonfat, dry milk/PBS, and 25 μL per well was added to the wells and incubated at RT for 1 hour. The plates were washed four times with PBS, using the EL405× (wash program ELISA_384_PBS_4× wash). After removal of the final wash, 25 μL/well of neat I-Step™ Ultra TMB-ELISA Substrate Solution (ThermoFisher, No. 34028) was added and the plates were incubated for 10-15 minutes at RT protected from light. After development, the reaction was stopped by adding 25 μL per well of 0.3 M HCl and plates were read using a SpectraMax M5e instrument at 450 nm.
(In general: ELISA stands for enzyme-linked immunosorbent assay.)

Experiment [2] has as its target T1, His-tagged recombinant human CD163 (R&D …). Put plainly: ELISA, plate coated with His-tagged recombinant human CD163 at 5 µg/mL, detection with anti-human IgG F(ab')2-HRP, A450; log axis in nM. As to the method:
as §1, §2

Experiment [3] concerns the target T2, Biotin-labeled human CD163 (human, UniProt Q86VB7 42-1050, limits assumed, biotin-labeled (sites not given)).
T2 construct: Biotinylated form of the human CD163 antigen, immobilised on SA biosensors for BLI; also called b-huCD163; Human CD163 Protein (biotinylated)
As to the kind of experiment: BLI (Octet RED96), b-huCD163 on SA biosensor, one Ab concentration 50.0 nM. In general terms: In BLI a coated tip is dipped into the sample, and binding shifts an interference pattern.

Experiment [4] addresses T1, His-tagged recombinant human CD163 (R&D …). As to the kind of experiment: ELISA, His-tagged recombinant human CD163 coated; ratio of EC50 against AB101. On the procedure:
as §1
as §2, with “After removal of the final wash, 25 μL/well of neat I-Step™ Ultra TMB-ELISA Substrate Solution (ThermoFisher, No. 34028) was added and the plates were incubated for 10-15 minutes at RT protected from light.” left out

The target of experiment [5] is T2, Biotin-labeled human CD163. Put plainly: BLI (Octet RED96), b-huCD163 on SA biosensor, Ab at 6.25/12.5/25/50 nM. As to the method: The SA sensors were placed in the PBS buffer for 15 minutes. Different solutions were added to a 96-well plate according to the following orders, with 200 μL per well.
The target of experiment [6] is T2, Biotin-labeled human CD163. Put plainly: BLI (Octet RED96), b-huCD163 on SA biosensor, ratio of KD against AB101 parental Ab.
Experiment [7] addresses T1, His-tagged recombinant human CD163 (R&D …). Put plainly: ratio of the KD values of Table 6 (AB101 parental Ab KD over clone 4 KD); the method is not shown in the excerpt.
In experiment [8] the target is T3, human CD163 expressed on cells (SU-DHL-1 lymphoma cells, M2c macrophages, monocytes and dendritic cells of … (human, UniProt Q86VB7 42-1114)).
T3 construct: Endogenous CD163 on human cells
Put plainly: flow cytometry on whole blood, DCs, APC-labeled antibody. On the procedure:
(§3) Antibody binding to human immune cell lineage subsets was assessed by flow cytometry. Briefly, whole blood with heparin as an anticoagulant was obtained (Bloodworks Northwest). Fc-receptor blocking reagent was directly added to whole blood to a final concentration of 10% FBS, 0.5 mg/mL human IgG1 and 0.05% NaN₃ in a final sample volume of 400 μL. […] After 30 minutes, red blood cells (RBC) were lysed with RBC lysis buffer, followed by Zombie UV viability staining. Then, cells were washed with FACS buffer (PBS containing 1% FBS, 2 mM EDTA, and 0.05% NaN₃) and resuspended in FACS buffer containing 10% FBS and 10% FcX block. Then, the antibody phenotyping cocktail (Table 8a) was added and incubated at room temperature for 30 minutes in the dark. Cells were washed with FACS buffer and resuspended in FACS buffer data acquisition using a FACSymphony™ Cytometer (BD BioSciences). Analysis was performed using FlowJo software. Populations were identified according to gating parameters as described in Table 8b.

Experiment [9] concerns the target T3, human CD163 expressed on cells …. As to the kind of experiment: cell-based or functional assay.
Experiment [10] shares this target. As to the kind of experiment: flow cytometry on whole blood, nonclassical monocytes, APC-labeled antibody. On the procedure: as §3
In general terms: In flow cytometry, cells or beads pass a laser one at a time.

Experiment [11] shares this target. As to the kind of experiment: flow cytometry on whole blood, intermediate monocytes, APC-labeled antibody. As to the method:
as §3

Experiment [12] shares this target. Put plainly: flow cytometry on whole blood, classical monocytes, APC-labeled antibody. As to the method:
as §3

Experiment [13] has the same target. As to the kind of experiment: cell-based or functional assay. This is another data set of the same source.
For experiment [14] the target is unchanged. Put plainly: cell-based or functional assay. This is another data set of the same source.
The target is the same in experiment [15]. Put plainly: cell-based or functional assay. The source holds these as a separate data set.

From US20240092926A1 (ONCORESPONSE, published 2024) come the findings set out here.

T1 sequence (Q86VB7 46-1050 limits assumed): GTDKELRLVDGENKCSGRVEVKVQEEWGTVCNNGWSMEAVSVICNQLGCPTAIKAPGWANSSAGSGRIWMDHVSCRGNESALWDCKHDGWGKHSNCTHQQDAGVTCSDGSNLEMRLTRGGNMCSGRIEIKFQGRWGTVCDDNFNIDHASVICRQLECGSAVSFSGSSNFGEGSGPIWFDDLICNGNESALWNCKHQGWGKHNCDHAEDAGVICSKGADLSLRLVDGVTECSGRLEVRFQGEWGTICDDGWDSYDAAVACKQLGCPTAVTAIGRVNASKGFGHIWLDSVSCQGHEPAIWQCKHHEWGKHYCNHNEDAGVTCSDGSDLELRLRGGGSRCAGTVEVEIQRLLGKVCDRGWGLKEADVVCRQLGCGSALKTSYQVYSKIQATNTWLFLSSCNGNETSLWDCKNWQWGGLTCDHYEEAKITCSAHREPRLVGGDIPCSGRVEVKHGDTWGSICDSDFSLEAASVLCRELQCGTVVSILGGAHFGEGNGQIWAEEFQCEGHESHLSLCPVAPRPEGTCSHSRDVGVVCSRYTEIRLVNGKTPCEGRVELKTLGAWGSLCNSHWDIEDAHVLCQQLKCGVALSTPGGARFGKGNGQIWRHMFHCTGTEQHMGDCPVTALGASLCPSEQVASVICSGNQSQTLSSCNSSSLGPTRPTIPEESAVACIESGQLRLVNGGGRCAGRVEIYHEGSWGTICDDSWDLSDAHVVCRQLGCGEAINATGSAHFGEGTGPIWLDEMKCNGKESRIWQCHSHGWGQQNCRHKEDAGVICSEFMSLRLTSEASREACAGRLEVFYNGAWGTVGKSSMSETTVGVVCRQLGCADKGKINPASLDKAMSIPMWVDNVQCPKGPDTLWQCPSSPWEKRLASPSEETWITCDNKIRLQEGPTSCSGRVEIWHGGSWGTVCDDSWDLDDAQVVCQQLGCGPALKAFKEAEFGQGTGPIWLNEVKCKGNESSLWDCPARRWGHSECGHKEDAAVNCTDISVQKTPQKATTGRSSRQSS
T2 sequence (Q86VB7 42-1050 limits assumed): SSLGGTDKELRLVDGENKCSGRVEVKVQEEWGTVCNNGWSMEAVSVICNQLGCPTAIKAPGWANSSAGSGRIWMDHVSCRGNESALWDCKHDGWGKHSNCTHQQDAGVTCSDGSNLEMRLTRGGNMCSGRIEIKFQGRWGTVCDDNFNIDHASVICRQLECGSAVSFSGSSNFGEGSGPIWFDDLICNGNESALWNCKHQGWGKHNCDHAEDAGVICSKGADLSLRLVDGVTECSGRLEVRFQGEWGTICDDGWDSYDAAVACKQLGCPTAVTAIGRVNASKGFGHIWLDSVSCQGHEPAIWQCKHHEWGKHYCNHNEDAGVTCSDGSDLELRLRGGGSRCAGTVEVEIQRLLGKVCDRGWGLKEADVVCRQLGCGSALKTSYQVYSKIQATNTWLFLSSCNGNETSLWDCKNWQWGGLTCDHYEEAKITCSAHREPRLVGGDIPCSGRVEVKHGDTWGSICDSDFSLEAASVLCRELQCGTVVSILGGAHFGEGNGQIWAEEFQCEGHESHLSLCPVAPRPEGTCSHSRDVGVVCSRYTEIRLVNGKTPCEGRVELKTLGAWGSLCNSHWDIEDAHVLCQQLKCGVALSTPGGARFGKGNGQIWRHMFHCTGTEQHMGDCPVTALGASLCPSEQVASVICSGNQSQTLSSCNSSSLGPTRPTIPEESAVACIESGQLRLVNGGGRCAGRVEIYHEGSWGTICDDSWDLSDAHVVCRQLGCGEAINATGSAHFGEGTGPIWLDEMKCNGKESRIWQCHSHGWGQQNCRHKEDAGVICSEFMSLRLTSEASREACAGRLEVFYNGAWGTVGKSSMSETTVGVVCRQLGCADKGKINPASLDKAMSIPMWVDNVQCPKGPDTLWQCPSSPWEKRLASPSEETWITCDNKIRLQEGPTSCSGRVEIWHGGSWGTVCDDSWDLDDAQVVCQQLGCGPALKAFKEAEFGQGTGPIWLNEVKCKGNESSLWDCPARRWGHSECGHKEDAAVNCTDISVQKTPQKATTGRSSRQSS
T3 sequence (Q86VB7 other isoform, or with tags, fused parts or gaps limits assumed): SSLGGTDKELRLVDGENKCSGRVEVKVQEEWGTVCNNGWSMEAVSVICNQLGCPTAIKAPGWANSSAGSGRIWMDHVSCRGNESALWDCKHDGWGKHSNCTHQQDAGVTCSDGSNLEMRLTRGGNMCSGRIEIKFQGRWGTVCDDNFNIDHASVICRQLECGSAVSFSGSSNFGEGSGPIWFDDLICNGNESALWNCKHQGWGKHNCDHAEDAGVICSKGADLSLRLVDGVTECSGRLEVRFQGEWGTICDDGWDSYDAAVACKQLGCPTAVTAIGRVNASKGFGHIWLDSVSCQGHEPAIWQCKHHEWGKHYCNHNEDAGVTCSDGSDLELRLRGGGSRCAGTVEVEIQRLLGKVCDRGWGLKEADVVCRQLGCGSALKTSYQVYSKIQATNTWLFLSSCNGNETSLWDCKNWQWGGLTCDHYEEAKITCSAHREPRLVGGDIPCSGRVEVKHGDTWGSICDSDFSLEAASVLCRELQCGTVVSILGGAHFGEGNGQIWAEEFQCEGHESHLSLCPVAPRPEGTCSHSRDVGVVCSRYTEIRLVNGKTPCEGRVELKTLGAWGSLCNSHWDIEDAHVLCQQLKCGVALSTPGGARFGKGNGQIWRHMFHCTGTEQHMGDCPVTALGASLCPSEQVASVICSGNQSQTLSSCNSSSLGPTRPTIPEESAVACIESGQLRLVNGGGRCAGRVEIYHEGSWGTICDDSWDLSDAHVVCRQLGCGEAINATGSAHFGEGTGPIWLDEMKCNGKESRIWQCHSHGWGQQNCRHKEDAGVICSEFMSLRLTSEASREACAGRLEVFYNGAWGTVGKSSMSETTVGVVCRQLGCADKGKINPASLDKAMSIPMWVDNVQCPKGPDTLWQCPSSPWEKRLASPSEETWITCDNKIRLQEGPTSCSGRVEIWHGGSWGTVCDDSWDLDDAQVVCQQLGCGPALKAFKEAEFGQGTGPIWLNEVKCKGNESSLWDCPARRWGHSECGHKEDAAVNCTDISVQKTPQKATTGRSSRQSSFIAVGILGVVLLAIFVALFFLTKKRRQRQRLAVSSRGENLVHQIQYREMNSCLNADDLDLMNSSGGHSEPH

B1: Variant 1 (V1) (antibody, V domains shown)
VH: EVQLVESGGGVVQPGRSLRLSCAASGFTFSSYDMHWVRQAPGKGLEWVAVISEDGSNKYNADSVKGRFTISRDNSKNTLYLQMNSLRAEDTAVYYCARENVRPYYDFWSGYSSEYYYYGLDVWGQGTTVTVS
VL: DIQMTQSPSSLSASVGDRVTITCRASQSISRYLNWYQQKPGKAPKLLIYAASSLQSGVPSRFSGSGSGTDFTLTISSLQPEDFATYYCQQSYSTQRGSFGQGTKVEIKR
notes: The printed VH ends in TVS, one S shorter than the other variants
For B1, the EC50 (in general, the concentration needed to bring the measured effect to its halfway point) in experiment [1] was determined as 1.87 nM. Besides, the half-maximal effective concentration (EC50 (read off the curve)) (usually the concentration needed to bring the measured effect to its halfway point) in experiment [2] is roughly 0.002 nM. Besides, in [3], binding was characterised by a dissociation constant (Kd) of 1.25 nM; the koff (commonly the rate constant with which the complex falls apart) worked out at 0.00112 s⁻¹; the kon – broadly, a measure of how fast the partners come together – amounted to 895000 M⁻¹ s⁻¹. Further, the “fold stronger binding than AB101 parental antibody (EC50)” value in experiment [4] fell in the range of 27 to 45 fold.

B2: Variant 4 (V4) (antibody, V domains shown)
VH: EVQLVESGGGVVQPGRSLRLSCAASGFTFSSYVMHWVRQAPGKGLEWVAVISEDGSNKYNADSVKGRFTISRDNSKNTLYLQMNSLRAEDTAVYYCARENVRPYYDFWSGYSSEYYYYGLDVWGQGTTVTVSS
VL: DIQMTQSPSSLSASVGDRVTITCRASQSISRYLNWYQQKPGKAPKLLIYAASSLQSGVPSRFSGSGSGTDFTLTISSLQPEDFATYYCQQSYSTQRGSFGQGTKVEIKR
notes: also called clone 4
As for B2, in [5], the Kd – broadly, the constant that tells how readily two partners part at equilibrium – worked out at 0.176 nM; the koff amounted to 0.000393 s⁻¹; the kon amounted to 2.23e+06 M⁻¹ s⁻¹. The EC50 in [1] came out at 3.05 nM. Moreover, the “EC50 (read off the curve)” value in [2] is roughly 0.003 nM. In [3], binding was characterised by a dissociation constant (Kd) of 0.824 nM, the koff amounted to 0.000874 s⁻¹ and the kon was determined as 1.06e+06 M⁻¹ s⁻¹. Moreover, the “fold stronger binding than AB101 parental antibody (EC50)” value in [4] was in the range of 27 to 45 fold. In experiment [6], the “Affinity enhancement compared to parental Ab” value was 3760 fold. The “fold affinity enhancement compared to AB101 parental Ab” value in experiment [7] was roughly 3760 fold.

B3: Variant 2 (V2) (antibody, V domains shown)
VH: EVQLVESGGGVVQPGRSLRLSCAASGFTFSSETMHWVRQAPGKGLEWVAVISEDGSNKYHADSVKGRFTISRDNSKNTLYLQMNSLRAEDTAVYYCARENVRPYYDFWSGYNSEYYYYGMDVWGQGTTVTVSS
VL: DIQMTQSPSSLSASVGDRVTITCRASQSISRYLNWYQQKPGKAPKLLIYAASSLQNGVPSRFSGSGSGTDFTLTISSLQPEDFATYYCQQSYSTTRGSFGQGTKVEIKR
In the case of B3, the EC50 in experiment [1] turned out to be 2.23 nM. The “EC50 (read off the curve)” value in [2] was roughly 0.002 nM. Besides, in experiment [3], the Kd came out at 0.991 nM, the koff came to 0.00087 s⁻¹ and the kon was 878000 M⁻¹ s⁻¹.

B4: Variant 3 (V3) (antibody, human IgG1, V domains shown)
VH: EVQLVESGGGVVQPGRSLRLSCAASGFTFSSYVMHWVRQAPGKGLEWVAVISEDGSNKYEADSVKGRFTISRDNSKNTLYLQMNSLRAEDTAVYYCARENVRPYYDFWRGYNSEYYYYGLDVWGQGTTVTVSS
VL: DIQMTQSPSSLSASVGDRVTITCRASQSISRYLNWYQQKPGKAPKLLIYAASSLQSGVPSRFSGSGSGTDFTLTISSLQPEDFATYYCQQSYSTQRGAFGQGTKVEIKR
Consider B4, for which the EC50 in experiment [1] turned out to be 2.79 nM. Besides, the “fold increase of geometric MFI compared to AB101” value (from here on “fold increase of geometric MFI”) in experiment [8] worked out at 4.3 fold. For the same molecule, the “EC50 (read off the curve)” value in experiment [2] was roughly 0.003 nM. For the same molecule, the “EC50 of antibody-elicited IFNγ secretion (M2c/T cell blast coculture)” value in experiment [9] is 0.47 nM. For the same molecule, the “fold increase of geometric MFI” value in [10] came to 3 fold. The “fold increase of geometric MFI” value in [11] is 9.2 fold. In [3], this molecule showed a Kd of 0.937 nM, a koff of 0.000925 s⁻¹ and a kon of 987000 M⁻¹ s⁻¹. Also, in experiment [12], the “fold increase of geometric MFI” value was 9.8 fold. Further, the “EC50 of antibody-elicited perforin secretion (M2c/CD8+ T cell coculture)” value in experiment [13] was determined as 0.33 nM. The “EC50 of antibody-elicited T cell proliferation (M2c/CD8+ T cell coculture)” value in [14] came out at 0.27 nM. For the same molecule, in [15], the “potency against AB101 in relieving M2c-mediated suppression of IFNγ release” value was greater than 10 fold, the “potency against parental AB101 in relieving M2c-mediated suppression of CD8+ T cell proliferation” value is roughly 40 fold and the “potency against parental AB101 in relieving M2c-mediated suppression of perforin secretion” value was roughly 100 fold.

B5: Variant 5 (V5) (antibody, V domains shown)
VH: EVQLVESGGGVVQPGRSLRLSCAASGFTFSSYDMHWVRQAPGKGLEWVAVISEDGSNKYNADSVKGRFTISRDNSKNTLYLQMNSLRAEDTAVYYCARENVRPYYDFWRGYNSEYYYYGLDVWGQGTTVTVSS
VL: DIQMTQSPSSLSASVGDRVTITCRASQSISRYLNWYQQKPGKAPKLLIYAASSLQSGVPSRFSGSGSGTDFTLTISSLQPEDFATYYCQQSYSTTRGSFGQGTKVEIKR
For B5, the EC50 in experiment [1] stood at 2.83 nM. For the same molecule, the “EC50 (read off the curve)” value in [2] was roughly 0.003 nM. Moreover, in experiment [3], binding was put at a Kd of 1.03 nM, the koff is 0.000978 s⁻¹ and the kon worked out at 951000 M⁻¹ s⁻¹.

B6: Variant 6 (V6) (antibody, V domains shown)
VH: EVQLVESGGGVVQPGRSLRLSCAASGFTFSSETMHWVRQAPGKGLEWVAVISEDGSNKYNADSVKGRFTISRDNSKNTLYLQMNSLRAEDTAVYYCARENVRPYYDFWSGYSSEYYYYGLDVWGQGTTVTVSS
VL: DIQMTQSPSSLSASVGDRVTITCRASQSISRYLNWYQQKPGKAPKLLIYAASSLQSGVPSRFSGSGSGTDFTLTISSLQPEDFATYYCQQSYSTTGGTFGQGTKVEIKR
As to B6, the EC50 in experiment [1] worked out at 2.68 nM. In addition, the “EC50 (read off the curve)” value in experiment [2] was roughly 0.003 nM. In experiment [3], this molecule registered a Kd of 0.964 nM, a koff of 0.000887 s⁻¹ and a kon of 921000 M⁻¹ s⁻¹.
